These results are taken from US20090022782A1, “Blood Retainable Device Exhibiting Selective Degradability in Tumor Tissue” (NATIONAL UNIVERSITY CORP. HOKKAIDO UNIVERSITY, priority 2005, published 2009).

The target of series [1] is T1, MMP-2 (Homo sapiens, UniProt P08253).
T1 construct: purchased Sigma
T1 sequence (P08253 110-660): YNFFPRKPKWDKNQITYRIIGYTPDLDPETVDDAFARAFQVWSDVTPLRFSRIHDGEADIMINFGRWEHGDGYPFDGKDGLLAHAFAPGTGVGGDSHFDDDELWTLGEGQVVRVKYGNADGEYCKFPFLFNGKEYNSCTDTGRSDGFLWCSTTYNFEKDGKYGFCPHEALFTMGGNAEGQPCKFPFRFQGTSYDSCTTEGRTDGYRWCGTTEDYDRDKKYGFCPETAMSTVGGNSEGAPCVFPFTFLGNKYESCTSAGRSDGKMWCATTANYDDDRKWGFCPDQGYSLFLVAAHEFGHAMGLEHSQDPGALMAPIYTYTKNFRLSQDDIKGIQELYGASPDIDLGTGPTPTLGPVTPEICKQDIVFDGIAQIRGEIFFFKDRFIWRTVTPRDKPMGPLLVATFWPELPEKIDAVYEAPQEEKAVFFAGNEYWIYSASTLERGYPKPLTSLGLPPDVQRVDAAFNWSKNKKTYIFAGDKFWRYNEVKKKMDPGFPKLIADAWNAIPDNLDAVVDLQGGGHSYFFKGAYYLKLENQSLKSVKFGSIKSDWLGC
As to the kind of experiment: Decomposition of the peptide by MMP-2, reverse phase HPLC. The series is classed as biochemical. The note with it: 0.5 mM peptide, MMP2 53 nM, 230 nM and 450 nM, 37° C., 2 hours. As to the method:
Matrix metalloproteinase 2 (MMP-2) was purchased from Sigma. DOPE-PEG was purchased from Avanti. Trypsin was purchased from Life Technologies. DISMIC was purchased from Advantec. Reverse phase HPLC was performed by using Model 1321H1 (GILSON), UV/VIS-155 (GILSON) as a detector, SOSMOSIL 5C18-AR-II (Nacalai Tesque) as a column, and 0.5% TFA-H2O and 0.5% TFA-acetonitrile filtered through Millicup-LH vacuum-driven bottletop filter unit (Millipore) as a mobile phase. The flow rate was 1.0 mL/minute.
First, it was examined whether or not the peptide was decomposed by MMP-2. A 0.5 mM peptide solution (25 μL) dissolved in a solution containing 10 mM HEPES (pH 7.4), 140 mM NaCl and 2 mM CaCl2 was analyzed by reverse phase HPLC. Further, MMP2 was added to the 0.5 mM peptide solution (25 μL) at a final concentration of 53 nM, 230 nM and 450 nM, each mixture was incubated at 37° C. for 2 hours, and then the whole volume of the mixture was analyzed by HPLC to confirm whether or not the peptide was decomposed by MMP2.

Another series deals with HEK293 cells. Description: Gene expression (luciferase activity) after transfection with MENDs, HEK293 cells. Format: cell-based, human. As to the method:
(§1) By using D′MEM added with inactivated FBS (FBS final concentration: 10%), the human fibrosarcoma-derived HT1080 cells were cultured on a sterilized culture dish in a CO2 incubator (37° C., 5% CO2). When the cells reached 70% confluence, the cells were removed from the dish by using 0.5 mM EDTA-PBS, the cell suspension was diluted to a density of 1 to 5×10^4 cells/mL using fresh D′MEM, and the cells were subcultured on a sterilized dish. In a similar manner, human kidney […] HEK293 cells were cultured. In the case of the HEK293 cells, the cells were removed from the dish by using 0.05% Trypsin/0.5 mM EDTA-PBS, and subcultured.
(§2) One day before the transfection, the HT1080 cells and the HEK293 cells were each inoculated into 1 mL of a medium on a 24-well plate at a density of 4×10^4 cells/well. A sample, prepared to be corresponding to 0.4 μg of DNA, was diluted to 250 μL with FBS- and antibiotic-free D′MEM (hereinafter abbreviated as “D′MEM(−)”) in the case of a serum free medium, or diluted similarly with D′MEM in the case of serum containing medium. […] The luciferase activity (RLU) in 20 μL of the supernatant was measured, and proteins were measured according to the BCA method for the supernatant diluted 5 times with DDW to calculate RLU/mg protein.

A short description of series [2]: Particle diameter and aggregation of DOPE liposomes versus addition ratio of PEG-lipid. The series is classed as physicochemical. The note with it: for aggregation on incubation: DOPE liposomes with PEG-peptide-DOPE, 37° C. As to the method:
(§3) A 1 mM lipid solution dissolved in ethanol, of which 125 μL was taken as 100%, was put into test tubes at various molar ratios, and a 1 mM DOPE-PEG solution was also added as required. Chloroform was added in the same volume of ethanol to the mixture in each tube, and the mixture was stirred. Then, the solvent was evaporated in a desiccator to obtain a lipid membrane. After the preparation of the lipid membrane, a solution (250 μL) containing 20 mM HEPES (pH 7.4), 280 mM NaCl, and 4 mM CaCl2 was added, and after hydration for 30 minutes, the mixture was sonicated for 1 minute to prepare liposomes.
(§4) Then, to the prepared liposomes (50 μL), PBS (10 μL), 230 nM or 5.5 nM MMP-2 in terms of final concentration, and 230 nM bovine serum albumin in terms of final concentration were added, the mixture was incubated at 37° C., and after 2, 8 and 24 hours, the particle diameter was measured. […] Even with the addition of 1% of DOPE-PEG, liposomes having a particle size less than 200 nm and showing stable dispersion was successfully prepared.
Also in this experiment, liposomes having a particle size less than 200 nm and showing stable dispersion were similarly prepared with the addition of 1% of PEG-peptide-DOPE.

Series [3] can be described thus: Particle diameter and zeta-potential of MENDs (Example 3). The series is classed as physicochemical. As to the method:
In order to prepare a negatively charged compaction body, the charge ratio (+/−) was determined to be 1.5 according to the formula (1). To 30 μL of pDNA (0.5 mg/mL), 120 μL of 10 mM HEPES-HCl (pH 7.4) was added. To 5 μL of protamine (2 mg/mL), […] of 10 mM HEPES-HCl (pH 7.4) was added. Protamine was slowly added dropwise to the pDNA solution with stirring by a vortex mixer. Formation of the compaction body was confirmed by measurement of the particle diameter and zeta-potential.
Lipid solutions of 1 mM in ethanol, each of which 125 μL was taken as 100%, were put into test tubes at molar ratios of 30% DOTAP, 40% DOPE, and 30% Chol. As for addition of PEG-lipids, 1 mM PEG-DSPE solution or PEG-peptide-DOPE solution in ethanol was added at a molar ratio of 5% or 15% based on the lipids except for the PEG-lipids, which were taken as 100%. Chloroform was added in the same volume of ethanol to the mixture in each tube, and the mixture was stirred. Then, the solvent was evaporated in a desiccator to obtain a lipid membrane. Then, the compaction body solution (250 μL) was added to the lipid membrane, and the mixture was left standing at room temperature for 15 to 30 minutes for hydration, and then sonicated for 1 to 2 minutes. The particle diameter and the zeta-potential were measured. Any significant difference was not observed between the values measured for MENDs containing PEG-peptide-DOPE and MENDs containing PEG-DSPE, and thus it was considered that equivalent MENDs were successfully prepared.

For another series, the system named is HT1080 cells. Description: Gene expression (luciferase activity) after transfection with MENDs, HT1080 cells. The series is classed as cell-based, human. As to the method: as §1, §2
In series [4] the target is T1, MMP-2. Description: Evaluation of PEG cleavage by MMP-2 (aggregation / particle diameter of DOPE liposomes). The series is classed as biochemical. As to conditions: for aggregation of the liposomes: DOPE liposomes containing PEG-peptide-DOPE at 10%. As to the method: It was evaluated whether or not the PEG-peptide-DOPE obtained in Example 1 was cleavable with MMP. For in vitro evaluation, a system was used with which the cleavage of PEG was detected on the basis of an increase in particle diameter. […] Cylinder-shaped lipids form a lamellar structure (bilayer structure), i.e., a liposome structure, whereas inverse cone-shape lipids form a […] (FIG. 1). It is known that when a PEG-lipid is added at a certain ratio to DOPE, the lipids form a lamellar structure and stably form liposomes. Therefore, if a matrix metalloproteinase is made to act on DOPE-containing liposomes prepared by using PEG-peptide-DOPE, thereby the peptide is decomposed and PEG is cleaved, DOPE molecules from which PEG is cleaved can no longer form liposomes, and take the hexagonal structure to initiate the aggregation. The above hypothesis was adopted as an evaluation method for PEG cleavage. Further, for in vitro evaluation of PEG cleavage, a method of measuring genetic expression activity was adopted. If the interaction of MEND and cell membranes is enhanced by cleavage of PEG, […].
as §3, §4

A short description of series [5]: Particle diameter and zeta-potential of compaction body and MENDs (Example 4). The note with it: Example 4, in HBG; PEG-lipid ratio (5% or 15%) not given. Format: physicochemical. As for the experimental part: According to the formula (I) mentioned in Example 3, the charge ratio (+/−) was determined to be 1.5, and a compaction body of pDNA coding for luciferase and protamine was prepared in HEPES buffered glucose (10 mM HEPES, pH 7.4, 5% glucose, HBG).
In the same manner as that of Example 3, a lipid membrane consisting of 30% DOTAP, 40% DOPE, and 30% Chol was prepared. To this membrane, PEG-DSPE or PEG-peptide-DOPE was added at a molar ratio of 5% or 15%, and the mixture was evaporated to obtain lipid membranes. Then, the compaction body was added to each of these lipid membranes, and the mixtures were sonicated to prepare MEND, PEG-modified MEND containing PEG-DSPE, and PEG-modified MEND containing PEG-peptide-DOPE.

Where [6] appears, read: MEND with PEG-lipid at molar ratio 5%.
Where [7] appears, read: MEND with PEG-lipid at molar ratio 15%.

Ends that are not written are not given here. * marks the point of attachment. DOPE = dioleoylphosphatidylethanolamine, CCCCCCCC/C=C\CCCCCCCC(=O)OC[C@H](COP(=O)(O)OCCN*)OC(=O)CCCCCCC/C=C\CCCCCCCC; MeO‑PEG succinate = methoxy poly(ethylene glycol) succinate

As to GGGVPLSLYSGGGG [peptide], the “decomposition of the peptide by MMP-2 (HPLC peak of degradation product)” value with MMP-2 [1] is given as “peak became larger in an enzyme concentration-dependent manner”.

As to “PEG-peptide-DOPE: MeO-PEG succinate bound to Gly-Gly-Gly-Val-Pro-Leu-Ser-Leu-Tyr-Ser-Gly-Gly-Gly-Gly, bound to dioleoylphosphatidylethanolamine; tested as component of liposomes and MENDs ({MeO‑PEG succinate}-GGGVPLSLYSGGGG-{DOPE})”, the “increase of gene expression compared with PEG-DSPE” value in the series with HEK293 cells (MEND modified with 5% of PEG) is 5 times; in the series with HT1080 cells (MEND modified with 5% of PEG), 35 times. The “gene expression activity compared with the PEG-DSPE modification group” value with HEK293 cells (MEND modified with 15% of PEG) and with HT1080 cells (MEND modified with 15% of PEG) was “did not give the increase of the gene expression activity” each time. For the same substance, the aggregation on incubation entry in series [2] (PEG content up to 5%) was “aggregation was observed”; in series [2] (addition amount of 10%) it was “aggregation was not observed”. The particle size entry in series [2] (DOPE liposomes, addition of 1% of PEG-peptide-DOPE) is given as “less than 200 nm”. Moreover, the “elevation of phase transition temperature compared with DOPE-PEG” value in series [2] (DOPE liposomes, suggested by the results) is recorded as “did not elevate the phase transition temperature as much as DOPE-PEG”. Moreover, the particle diameter is reported as 162.2 nm in series [3] (setting [6]), 141.2 nm in series [3] (setting [7]) and 141 nm in series [5]. Moreover, the zeta-potential entry in series [3] (setting [6]) is “+18.79 mV”; in series [3] (setting [7]) it was “+2.80 mV”. Further, the “aggregation of the liposomes” value with MMP-2 [4] (5.5 nM MMP-2, 37° C.) was “Aggregation of the liposomes was not observed”; with MMP-2 [4] (230 nM BSA, 37° C.), “Aggregation was not observed”; with MMP-2 [4] (230 nM MMP-2, 37° C.), “aggregation was observed”; in the series with MMP-2 [4] (in PBS, 37° C.) it was “Aggregation of the liposomes was not observed”. Also, the “cleavage by MMP-2” value with MMP-2 [4] (lipid in the state of constituting liposomes) was “cleaved by MMP-2”. Further, the ξ -potential in series [5] is listed as 12.8 mV.
